In the nanobody polyreactivity screen of Harvey et al. (2022):

Test: yeast display, Sf9 membrane polyspecificity reagent, FACS + sequencing; frameworks hold sequencing errors
In short: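 In a synthetic yeast display library (Saccharomyces cerevisiae BJ5465), nanobody expression was induced with galactose for 36–48 hours. FACS gates were set low and high (top ~1%) using anti-HA fluorescence for expression and streptavidin fluorescence for binding of the Sf9 membrane reagent. Each polyreactivity label is drawn from the gate of origin.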

Sequence: QVQLVESVGGLVQAGGSLRLSCAASGFTFANYAMGWYRQAPGKERELVAAITWSGGRTYYADSVKGRFTISRDNAKNTVYLQMNSLKQEYTAVYYCAAGLGTLYGYWGQGTQVTVSS
- polyreactivity (PSR sort gate): high polyreactivity

Sequence: QVQLVESVGGLVQAGGSLRLSCAASGFTFLWYAMGWYRQAPGKEWELVAAINSSGVRTYYADSVKGRFTISRDNAKNTVYLLMNSLKPEDTAVYYCAAYQKTYTEDEYWGQGTQVTVSS
- polyreactivity (PSR sort gate): high polyreactivity

Sequence: QVQLVESVGGLVQAGGSLRLSCAASGFTFTYNAMGWYRQAPGKERELVAAISRNGGRTYYADSVKGRFTISRDNAKNTVYLQMNSLKPEDTAVYYCNAVYYYYYWRVSIYDYWGQGTQVTVSS
- polyreactivity (PSR sort gate): high polyreactivity

Sequence: QVQLVESVGGLVQAGGSLRLSCAASGFTFWIYAMGWYRQAPGKERELVAVISRGGSTYYADSVKGRFTISRDNAKNTVYLQMNSLKPEDTAVYYCAAYWRSRNRFYWGQGTQVTVSS
- polyreactivity (PSR sort gate): high polyreactivity

Sequence: QVQLVESVGGLVQAGGSLRLSCAASGGTFFYNSMGWYRQAPGKEREFVAAINGGTSTNYADSVKGRFTISRDNAKNTVYLQMNSLKPEDTAVYYCAAVYRRLGRFDWYDYWGQGTQVTVSS
- polyreactivity (PSR sort gate): low polyreactivity

Sequence: QVQLVESVGGLVQAGGSLRLSCAASGITFDRNAMGWYRQAPGKERELVAAISSGGTYADSVKGRFTISRDNAKNTVYLQMNSLKPEDTAVYYCNADTDYIRWIYGYWGQGTQVTVSS
- polyreactivity (PSR sort gate): low polyreactivity

Sequence: QVQLVESVGGLVQAGGSLRLSCAASGITFSLYAAMGWYRQAPGKERELVAAISWRGGNTYYADSVKGRFTISRDNAKNTVYLQMNSLKPEDTAVYYCAARRTNLPVNFYYWGQGTQVTVSS
- polyreactivity (PSR sort gate): high polyreactivity

Sequence: QVQLVESVGGLVQAGGSLRLSCAASGITYYGYAMGWYRQAPGKERELVAAISKSGGSTHYADSVKGRFTISRDNAKNTVYLQMNSLKPEDTAVYYCNSRSLVFPITFWEYDYWGQGTQVTVSS
- polyreactivity (PSR sort gate): low polyreactivity

Sequence: QVQLVESVGGLVQAGGSLRLSCAASGLIFSRYAMGWYRQAPGKERELVAAITSGTSTYYADSVKGRFTISRDNAKNTVYLQMNSLKPEDTAVYYCARRYRGGYKYDYWGQGTQVTVSS
- polyreactivity (PSR sort gate): high polyreactivity

Sequence: QVQLVESVGGLVQAGGSLRLSCAASGLIFVRYAMGWYRQAPGKERELVATITWSGGTTYADSVKGRFTISRDNAKNTVYLQMNSLKPEDTAVYYCAVEWPAWTDSDYPVGGHAFGYWGQGTQVTVSS
- polyreactivity (PSR sort gate): low polyreactivity

Sequence: QVQLVESVGGLVQAGGSLRLSCAASGLTCYGKTMGWYRQAPGKDRELVAAISFDGGNTYADSVKGRFTISRDNAKNTVYLQMNSLKPEDTAVYYDYWGQGNQVTVSS
- polyreactivity (PSR sort gate): low polyreactivity

Sequence: QVQLVESVGGLVQAGGSLRLSCAASGNTFSLYAMGWYSQAPGKERELVAAITWITGSTDYADSVKGRFTISRDNAKNTVYLQMNSLKPEDTAVYYCAADGDFSWFYSYETGWIEYDYCGQGTQVTVSS
- polyreactivity (PSR sort gate): low polyreactivity

Sequence: QVQLVESVGGLVQAGGSLRLSCAASGRIFRSYTMGWYREATGKERELVAGIRASGGSTYYADSVKGRFTISRDNAKNTVYLQMNSVKPEDTAVYYCAARRYTTFGIRDYWGQGTQVTVSS
- polyreactivity (PSR sort gate): high polyreactivity

Sequence: QVQLVESVGGLVQAGGSLRLSCAASGRIFTLYAMGWYRQAPGKERELVAAISWSGGSTYYADSVKGRFTISRDNAKNTVYLQMNSLKPEDTAVYYCAATWYRYYSIPRYDSWGQATQVTVSS
- polyreactivity (PSR sort gate): high polyreactivity

Sequence: QVQLVESVGGLVQAGGSLRLSCAASGRIFYPYAMGWYRQAPGKERELVAAITRGGITTYADSVYGRFTISRDNAKNTVYLQMNSLKPEDTAVYYCNAVRWYGRMDYWGQGTQVTVSS
- polyreactivity (PSR sort gate): low polyreactivity

Sequence: QVQLVESVGGLVQAGGSLRLSCAASGRIYVYVMGWYIQSPGKERELVAAITSGGSTYYADSVKGRFTISRDNAKNTDYLQMNSLKPEDTAVYYCAADVNGGYDYYYFVSIVYYWGQGTQVTVSS
- polyreactivity (PSR sort gate): low polyreactivity

Sequence: QVQLVESVGGLVQAGGSLRLSCAASGRTCGYKAMGWYRQAPGKERQLVAAISRGGSTNYADSVKGRFTISRDNAKNSVYLQMNSLKPEDTAVYYCAKTIRAYRPSRTAYRLDYWGQGTQVTVSS
- polyreactivity (PSR sort gate): high polyreactivity

Sequence: QVQLVESVGGLVQAGGSLRLSCAASGRTFRAYSMGSYRQAPGKETELVAAIRSGTSTNYADSVKGRFTISRDNAKNTVYLQMNSLKPEDTAVYYCAARWWYYIGGRDYWGHGTQVTVSS
- polyreactivity (PSR sort gate): high polyreactivity

Sequence: QVQLVESVGGLVQAGGSLRLSCAASGRTFRNNAMGWYRQAPGTEREFVAVISNTGGSTYYADSVKGRFTISRDNAKNTVYLQLNSLKPEDTAVYYCAVRPRYSQYYYWGQGTQVTVSS
- polyreactivity (PSR sort gate): high polyreactivity

Sequence: QVQLVESVGGLVQAGGSLRLSCAASGRTFVYNAMGWYRQAPGKEREFVGAISDGGGDTYYADSVKGRFTISRDNAKNTVFLQMNSLKPEVTAVYYCNVEWQQPGYAFDYCGQGTQVTVSS
- polyreactivity (PSR sort gate): low polyreactivity

Sequence: QVQLVESVGGLVQAGGSLRLSCAASGRTFYFYAMGWYRQAPGKERELVASITSSGGNTYYADSVKGRFTISRDNAKNTVYLQMNSLKPEDTAVYYCAARWFPWLQWKRYVYWGQGTQVTVSS
- polyreactivity (PSR sort gate): low polyreactivity

Sequence: QVQLVESVGGLVQAGGSLRLSCAASGRTFYTNAMGWYRQAPGKERELVAAITRGTSTSYADSVKGRFTISRDNAKNTVYLQMNSLKPEDTAVYYCAARGTQYSPSKSWFYYWGQGTQVTVSS
- polyreactivity (PSR sort gate): high polyreactivity

Sequence: QVQLVESVGGLVQAGGSLRLSCAASGRTLLYNAMGWYRQAPGKERELVAAISRGGSTYYADSVNGRFTISRDNAKNTVYLQMNSLKPEDTAVYYCATGTWRYRYDYWGQGTQVTVSS
- polyreactivity (PSR sort gate): low polyreactivity

Sequence: QVQLVESVGGLVQAGGSLRLSCAASGSIFGFYAMGWYRQAPGKERELDAVISSDASKNYADSVKGRFTISRDNAKNTVYLQMKSLKPEDTAVYYCNAVAYGYHFFSYYSVDYWGQGTQVTVSS
- polyreactivity (PSR sort gate): low polyreactivity

Sequence: QVQLVESVGGLVQAGGSLRLSCAASGSIFKYYAMGWYRQEPGKERELVAAITIGGNTNYADSVKGRFTISRDNAKNTVYLQMNSLKPEDTAVYYCATGGYYSAIVYGGYDYWGQGTQVSVSS
- polyreactivity (PSR sort gate): low polyreactivity

Sequence: QVQLVESVGGLVQAGGSLRLSCAASGSIFRLYALGWSRQAPGKERELVAAIRYSTGRTYSADSVKGRFTISRDNAKNTVYLQMNSLKPEDTAVYYCNARSWYIRGSQEYYYWGQGTQVTVSS
- polyreactivity (PSR sort gate): high polyreactivity

Sequence: QVQLVESVGGLVQAGGSLRLSCAASGSIFVTNAMGWYRQAPGKERELVAAISSGGNTNYADSVKGRFTISRDNAKNTVYLQMNSRKPEDTAVYYCAKDPDKVDYVDMDYWGQGTQVTVSS
- polyreactivity (PSR sort gate): low polyreactivity

Sequence: QVQLVESVGGLVQAGGSLRLSCAASGSIFWPNAMGWYRQAPGKERELVATISGSGGSTYYADSVKGRFTISRDNAKNTVYLQMNSLKPEDTAVYYCAADYRYGRYDYWGQGTQVTVSS
- polyreactivity (PSR sort gate): high polyreactivity

Sequence: QVQLVESVGGLVQAGGSLRLSCAASGSIFWWYAMGLARQAPGKERELVAAISTRDGNTYYADSVKGRFTISRDNANNTVYLQMNSLKPEDTAVYYCAADYFRYYPYDYWGQGTQVTVSS
- polyreactivity (PSR sort gate): low polyreactivity

Sequence: QVQLVESVGGLVQAGGSLRLSCAASGSIFYNNAMGWYRQAPGKDRELVAAIRSTGTRTYYADSVKGRFTISRDHAKNTVYLQMNSLKAEDTAVYYCAVGDYGLWSYDYWGQGTQLTVSS
- polyreactivity (PSR sort gate): low polyreactivity

Sequence: QVQLVESVGGLVQAGGSLRLSCAASGSIRSYAIGWYRQAPGKERELVAAITRSGGSTYYADSVKGRFTISRDNAKNTVYLQMISLKPEDTAVYYCAARYTYSYPLFGSWGQGTQVTVSS
- polyreactivity (PSR sort gate): high polyreactivity

Sequence: QVQLVESVGGLVQAGGSLRLSCAASGSTFAANAMGWYRQAPGKASELVAAITSVGTTYYADSVKGRFTISRDNGKNTVYLQMNSLKPEDTEVYYCNAEYGVWYDYLVVPYDYWGQGTQVTVSS
- polyreactivity (PSR sort gate): low polyreactivity
